Laboratory results as given in patent US20250171562A1.

B1: NIgG4E3A1(G4S)1 (Fc fusion)
chain 1: DVQLQESGGGLVQAGGSLRLACAASGRTLSSYVVSWFRQAPGKERKFVAAITWSGLSTTYLDSVQGRFTISRDNTKDTVYLQMNSLKPQDTAIYYCAAGPNIPSILRTRESEYAYWGQGTQVTVSGGGGSGPPCPPCPAPEFLGGPSVFLFPPKPKDTLMISRTPEVTCVVVDVSQEDPEVQFNWYVDGVEVHNAKTKPREEQFNSTYRVVSVLTVLHQDWLNGKEYKCKVSNKGLPSSIEKTISKAKGQPREPQVYTLPPCQEEMTKNQVSLWCLVKGFYPSDIAVEWESNGQPENNYKTTPPVLDSDGSFFLYSRLTVDKSRWQEGNVFSCSVMHEALHNHYTQKSLSLSLGK
chain 2: EVQLLESGGGLVQPGGSLRLSCAASGFTFGNYDMAWVRQAPGKRPEWVSSIDTGGDITHYADSVKGRFTISRDNAKNTLYLQMNSLRPEDTAVYWCATDEEYALGPNEFDYYGQGTLVTVSSGGGGSGPPCPPCPAPEFLGGPSVFLFPPKPKDTLMISRTPEVTCVVVDVSQEDPEVQFNWYVDGVEVHNAKTKPREEQFNSTYRVVSVLTVLHQDWLNGKEYKCKVSNKGLPSSIEKTISKAKGQPREPQVCTLPPSQEEMTKNQVSLSCAVKGFYPSDIAVEWESNGQPENNYKTTPPVLDSDGSFFLVSRLTVDKSRWQEGNVFSCSVMHEALHNHYTQKSLSLSLGK
B2: NIgG4E3A1(RS) (Fc fusion)
chain 1: DVQLQESGGGLVQAGGSLRLACAASGRTLSSYVVSWFRQAPGKERKFVAAITWSGLSTTYLDSVQGRFTISRDNTKDTVYLQMNSLKPQDTAIYYCAAGPNIPSILRTRESEYAYWGQGTQVTVSRSGPPCPPCPAPEFLGGPSVFLFPPKPKDTLMISRTPEVTCVVVDVSQEDPEVQFNWYVDGVEVHNAKTKPREEQFNSTYRVVSVLTVLHQDWLNGKEYKCKVSNKGLPSSIEKTISKAKGQPREPQVYTLPPCQEEMTKNQVSLWCLVKGFYPSDIAVEWESNGQPENNYKTTPPVLDSDGSFFLYSRLTVDKSRWQEGNVFSCSVMHEALHNHYTQKSLSLSLGK
chain 2: EVQLLESGGGLVQPGGSLRLSCAASGFTFGNYDMAWVRQAPGKRPEWVSSIDTGGDITHYADSVKGRFTISRDNAKNTLYLQMNSLRPEDTAVYWCATDEEYALGPNEFDYYGQGTLVTVSSRSGPPCPPCPAPEFLGGPSVFLFPPKPKDTLMISRTPEVTCVVVDVSQEDPEVQFNWYVDGVEVHNAKTKPREEQFNSTYRVVSVLTVLHQDWLNGKEYKCKVSNKGLPSSIEKTISKAKGQPREPQVCTLPPSQEEMTKNQVSLSCAVKGFYPSDIAVEWESNGQPENNYKTTPPVLDSDGSFFLVSRLTVDKSRWQEGNVFSCSVMHEALHNHYTQKSLSLSLGK
B3: CIgG4E2A1(G4S)1 (Fc fusion)
chain 1: GPPCPPCPAPEFLGGPSVFLFPPKPKDTLMISRTPEVTCVVVDVSQEDPEVQFNWYVDGVEVHNAKTKPREEQFNSTYRVVSVLTVLHQDWLNGKEYKCKVSNKGLPSSIEKTISKAKGQPREPQVYTLPPCQEEMTKNQVSLWCLVKGFYPSDIAVEWESNGQPENNYKTTPPVLDSDGSFFLYSRLTVDKSRWQEGNVFSCSVMHEALHNHYTQKSLSLSLGKGGGGSDVQLQESGGGLVQAGGSLRLSCAASGRTISRYAVGWFRRPPAKEREFIGINWSGGSTTYADSAEGRFIISRDNAKNTVYLQMNSLKPEDTAVYYCAVPSVLVQGGISNPSQYDYWGQGTQVTVS
chain 2: GPPCPPCPAPEFLGGPSVFLFPPKPKDTLMISRTPEVTCVVVDVSQEDPEVQFNWYVDGVEVHNAKTKPREEQFNSTYRVVSVLTVLHQDWLNGKEYKCKVSNKGLPSSIEKTISKAKGQPREPQVCTLPPSQEEMTKNQVSLSCAVKGFYPSDIAVEWESNGQPENNYKTTPPVLDSDGSFFLVSRLTVDKSRWQEGNVFSCSVMHEALHNHYTQKSLSLSLGKGGGGSEVQLLESGGGLVQPGGSLRLSCAASGFTFGNYDMAWVRQAPGKRPEWVSSIDTGGDITHYADSVKGRFTISRDNAKNTLYLQMNSLRPEDTAVYWCATDEEYALGPNEFDYYGQGTLVTVSS
B4: NIgG4E3A1(G4S)2 (Fc fusion)
chain 1: DVQLQESGGGLVQAGGSLRLACAASGRTLSSYVVSWFRQAPGKERKFVAAITWSGLSTTYLDSVQGRFTISRDNTKDTVYLQMNSLKPQDTAIYYCAAGPNIPSILRTRESEYAYWGQGTQVTVSGGGGSGGGGSGPPCPPCPAPEFLGGPSVFLFPPKPKDTLMISRTPEVTCVVVDVSQEDPEVQFNWYVDGVEVHNAKTKPREEQFNSTYRVVSVLTVLHQDWLNGKEYKCKVSNKGLPSSIEKTISKAKGQPREPQVYTLPPCQEEMTKNQVSLWCLVKGFYPSDIAVEWESNGQPENNYKTTPPVLDSDGSFFLYSRLTVDKSRWQEGNVFSCSVMHEALHNHYTQKSLSLSLGK
chain 2: EVQLLESGGGLVQPGGSLRLSCAASGFTFGNYDMAWVRQAPGKRPEWVSSIDTGGDITHYADSVKGRFTISRDNAKNTLYLQMNSLRPEDTAVYWCATDEEYALGPNEFDYYGQGTLVTVSSGGGGSGGGGSGPPCPPCPAPEFLGGPSVFLFPPKPKDTLMISRTPEVTCVVVDVSQEDPEVQFNWYVDGVEVHNAKTKPREEQFNSTYRVVSVLTVLHQDWLNGKEYKCKVSNKGLPSSIEKTISKAKGQPREPQVCTLPPSQEEMTKNQVSLSCAVKGFYPSDIAVEWESNGQPENNYKTTPPVLDSDGSFFLVSRLTVDKSRWQEGNVFSCSVMHEALHNHYTQKSLSLSLGK
B5: NIgG4E3A1(G4S)3 (Fc fusion)
chain 1: DVQLQESGGGLVQAGGSLRLACAASGRTLSSYVVSWFRQAPGKERKFVAAITWSGLSTTYLDSVQGRFTISRDNTKDTVYLQMNSLKPQDTAIYYCAAGPNIPSILRTRESEYAYWGQGTQVTVSGGGGSGGGGSGGGGSGPPCPPCPAPEFLGGPSVFLFPPKPKDTLMISRTPEVTCVVVDVSQEDPEVQFNWYVDGVEVHNAKTKPREEQFNSTYRVVSVLTVLHQDWLNGKEYKCKVSNKGLPSSIEKTISKAKGQPREPQVYTLPPCQEEMTKNQVSLWCLVKGFYPSDIAVEWESNGQPENNYKTTPPVLDSDGSFFLYSRLTVDKSRWQEGNVFSCSVMHEALHNHYTQKSLSLSLGK
chain 2: EVQLLESGGGLVQPGGSLRLSCAASGFTFGNYDMAWVRQAPGKRPEWVSSIDTGGDITHYADSVKGRFTISRDNAKNTLYLQMNSLRPEDTAVYWCATDEEYALGPNEFDYYGQGTLVTVSSGGGGSGGGGSGGGGSGPPCPPCPAPEFLGGPSVFLFPPKPKDTLMISRTPEVTCVVVDVSQEDPEVQFNWYVDGVEVHNAKTKPREEQFNSTYRVVSVLTVLHQDWLNGKEYKCKVSNKGLPSSIEKTISKAKGQPREPQVCTLPPSQEEMTKNQVSLSCAVKGFYPSDIAVEWESNGQPENNYKTTPPVLDSDGSFFLVSRLTVDKSRWQEGNVFSCSVMHEALHNHYTQKSLSLSLGK
B6: CIgG4E2A1(G4S)2 (Fc fusion)
chain 1: GPPCPPCPAPEFLGGPSVFLFPPKPKDTLMISRTPEVTCVVVDVSQEDPEVQFNWYVDGVEVHNAKTKPREEQFNSTYRVVSVLTVLHQDWLNGKEYKCKVSNKGLPSSIEKTISKAKGQPREPQVYTLPPCQEEMTKNQVSLWCLVKGFYPSDIAVEWESNGQPENNYKTTPPVLDSDGSFFLYSRLTVDKSRWQEGNVFSCSVMHEALHNHYTQKSLSLSLGKGGGGSGGGGSDVQLQESGGGLVQAGGSLRLSCAASGRTISRYAVGWFRRPPAKEREFIGINWSGGSTTYADSAEGRFIISRDNAKNTVYLQMNSLKPEDTAVYYCAVPSVLVQGGISNPSQYDYWGQGTQVTVS
chain 2: GPPCPPCPAPEFLGGPSVFLFPPKPKDTLMISRTPEVTCVVVDVSQEDPEVQFNWYVDGVEVHNAKTKPREEQFNSTYRVVSVLTVLHQDWLNGKEYKCKVSNKGLPSSIEKTISKAKGQPREPQVCTLPPSQEEMTKNQVSLSCAVKGFYPSDIAVEWESNGQPENNYKTTPPVLDSDGSFFLVSRLTVDKSRWQEGNVFSCSVMHEALHNHYTQKSLSLSLGKGGGGSGGGGSEVQLLESGGGLVQPGGSLRLSCAASGFTFGNYDMAWVRQAPGKRPEWVSSIDTGGDITHYADSVKGRFTISRDNAKNTLYLQMNSLRPEDTAVYWCATDEEYALGPNEFDYYGQGTLVTVSS
B7: CIgG4E3A1(RS) (Fc fusion)
chain 1: GPPCPPCPAPEFLGGPSVFLFPPKPKDTLMISRTPEVTCVVVDVSQEDPEVQFNWYVDGVEVHNAKTKPREEQFNSTYRVVSVLTVLHQDWLNGKEYKCKVSNKGLPSSIEKTISKAKGQPREPQVYTLPPCQEEMTKNQVSLWCLVKGFYPSDIAVEWESNGQPENNYKTTPPVLDSDGSFFLYSRLTVDKSRWQEGNVFSCSVMHEALHNHYTQKSLSLSLGKRSDVQLQESGGGLVQAGGSLRLACAASGRTLSSYVVSWFRQAPGKERKFVAAITWSGLSTTYLDSVQGRFTISRDNTKDTVYLQMNSLKPQDTAIYYCAAGPNIPSILRTRESEYAYWGQGTQVTVS
chain 2: GPPCPPCPAPEFLGGPSVFLFPPKPKDTLMISRTPEVTCVVVDVSQEDPEVQFNWYVDGVEVHNAKTKPREEQFNSTYRVVSVLTVLHQDWLNGKEYKCKVSNKGLPSSIEKTISKAKGQPREPQVCTLPPSQEEMTKNQVSLSCAVKGFYPSDIAVEWESNGQPENNYKTTPPVLDSDGSFFLVSRLTVDKSRWQEGNVFSCSVMHEALHNHYTQKSLSLSLGKRSEVQLLESGGGLVQPGGSLRLSCAASGFTFGNYDMAWVRQAPGKRPEWVSSIDTGGDITHYADSVKGRFTISRDNAKNTLYLQMNSLRPEDTAVYWCATDEEYALGPNEFDYYGQGTLVTVSS
B8: CIgG4E2A1(G4S)3 (Fc fusion)
chain 1: GPPCPPCPAPEFLGGPSVFLFPPKPKDTLMISRTPEVTCVVVDVSQEDPEVQFNWYVDGVEVHNAKTKPREEQFNSTYRVVSVLTVLHQDWLNGKEYKCKVSNKGLPSSIEKTISKAKGQPREPQVYTLPPCQEEMTKNQVSLWCLVKGFYPSDIAVEWESNGQPENNYKTTPPVLDSDGSFFLYSRLTVDKSRWQEGNVFSCSVMHEALHNHYTQKSLSLSLGKGGGGSGGGGSGGGGSDVQLQESGGGLVQAGGSLRLSCAASGRTISRYAVGWFRRPPAKEREFIGINWSGGSTTYADSAEGRFIISRDNAKNTVYLQMNSLKPEDTAVYYCAVPSVLVQGGISNPSQYDYWGQGTQVTVS
chain 2: GPPCPPCPAPEFLGGPSVFLFPPKPKDTLMISRTPEVTCVVVDVSQEDPEVQFNWYVDGVEVHNAKTKPREEQFNSTYRVVSVLTVLHQDWLNGKEYKCKVSNKGLPSSIEKTISKAKGQPREPQVCTLPPSQEEMTKNQVSLSCAVKGFYPSDIAVEWESNGQPENNYKTTPPVLDSDGSFFLVSRLTVDKSRWQEGNVFSCSVMHEALHNHYTQKSLSLSLGKGGGGSGGGGSGGGGSEVQLLESGGGLVQPGGSLRLSCAASGFTFGNYDMAWVRQAPGKRPEWVSSIDTGGDITHYADSVKGRFTISRDNAKNTLYLQMNSLRPEDTAVYWCATDEEYALGPNEFDYYGQGTLVTVSS

molecular target: mixture of three Der p 2 specific recombinant human IgE clones H10, H12, P4E (human) (UniProt P01854); assay: RBL-SX38 IgE displacement, FACS
Sequence (P01854 other isoform, or with tags, fused parts or gaps): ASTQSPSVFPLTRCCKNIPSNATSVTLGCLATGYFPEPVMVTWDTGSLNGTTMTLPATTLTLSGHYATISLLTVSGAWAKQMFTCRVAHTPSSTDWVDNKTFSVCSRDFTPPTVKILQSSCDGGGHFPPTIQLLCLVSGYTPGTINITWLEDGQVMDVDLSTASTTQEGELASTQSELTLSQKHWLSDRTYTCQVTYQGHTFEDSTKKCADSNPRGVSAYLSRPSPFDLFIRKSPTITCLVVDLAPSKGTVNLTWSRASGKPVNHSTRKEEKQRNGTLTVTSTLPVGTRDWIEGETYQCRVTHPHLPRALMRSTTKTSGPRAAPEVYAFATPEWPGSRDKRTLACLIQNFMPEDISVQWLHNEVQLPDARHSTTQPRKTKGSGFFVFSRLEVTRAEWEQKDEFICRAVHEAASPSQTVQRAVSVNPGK

Q: Which results are given for B1?
A: EC50: 2 nM; Max effect/effect 1 µM: 99%

Q: Which EC50 does the source give for B2 here?
A: 2.2 nM

Q: What about the Max effect/effect 1 µM of the same binder?
A: 100%

Q: Which Max effect/effect 1 µM does the source give for B3 here?
A: 22%

Q: B4 was tested. Which EC50 did it give?
A: 2.1 nM

Q: What about the Max effect/effect 1 µM of the same binder?
A: 99%

Q: B5 was tested. Which EC50 did it give?
A: 2.2 nM

Q: What about the Max effect/effect 1 µM of the same binder?
A: 97%

Q: B6 was tested. Which EC50 did it give?
A: 572 nM

Q: And the Max effect/effect 1 µM?
A: 45%

Q: With B7 as the binder, how does the Max effect/effect 1 µM read?
A: 21%

Q: What does the source list for B8?
A: EC50: 532 nM; Max effect/effect 1 µM: 45%
